Experimental data: patent publication US20050119456A1 (NEW YORK UNIVERSITY, published 2005)

Target: T1, GST-SMRT (Hu SMRT(1-900) fused to GST, from pGEX-6p-1) (human, UniProt Q9Y618 1-900)
T1 construct: range 1-900; Expressed in bacteria with IPTG and adsorbed onto glutathione sepharose 4B; also called GST-SMRT agarose; immobilized SMRT; not shown: glutathione S-transferase of the pGEX-6p-1 bacterial expression vector
Assay: GST pull-down of 35S-labeled in vitro translated C21 fragment
Source text: FIGS. 15A and 15B show GST-pull-down of in vitro synthesized C21 by SMRT (1-900). Hu SMRT(1-900) cDNA was amplified by PCR and cloned in-frame into pGEX-6p-1 (GST fusion expression vector for bacterial expression). Expression of the GST fusion protein (FIG. 15A) or control (FIG. 15B) was induced with IPTG and the product adsorbed onto glutathione sepharose 4B. hC21 (full-length ORF or fragments lacking the C-terminal half(δ C), the F-box (δ F), the N terminal 40 amino acid (δ N) or a construct lacking both the N-terminus and the F-box (δN+F) was cloned in-frame into pCDNA3 vector with a Flag tag at the N-terminus. The plasmid, linearized with EcoRI, was purified and used as a template to label the product. For the pull-down experiments, 5 ng of ³⁵S-labeled hC21 protein(s) and 20 ul of GST agarose or GST-SMRT agarose were mixed. All four C21 constructs labeled with equal efficiency and the same quantity of labeled protein were used in each experiment. The denatured proteins were then electrophoresed through a 10% SDS PAGE gel.
Labeled C21 prepared by in vitro translation using 35S methionine can be “pulled-down” by immobilized SMRT. […] A fragment (21[δC]) consisting only of the first 230 amino acids (i.e., lacking all of the WD40 repeats and the carboxyl terminus) was as efficient as the full-length protein in reacting with SMRT.

T1 sequence (Q9Y618 1-900): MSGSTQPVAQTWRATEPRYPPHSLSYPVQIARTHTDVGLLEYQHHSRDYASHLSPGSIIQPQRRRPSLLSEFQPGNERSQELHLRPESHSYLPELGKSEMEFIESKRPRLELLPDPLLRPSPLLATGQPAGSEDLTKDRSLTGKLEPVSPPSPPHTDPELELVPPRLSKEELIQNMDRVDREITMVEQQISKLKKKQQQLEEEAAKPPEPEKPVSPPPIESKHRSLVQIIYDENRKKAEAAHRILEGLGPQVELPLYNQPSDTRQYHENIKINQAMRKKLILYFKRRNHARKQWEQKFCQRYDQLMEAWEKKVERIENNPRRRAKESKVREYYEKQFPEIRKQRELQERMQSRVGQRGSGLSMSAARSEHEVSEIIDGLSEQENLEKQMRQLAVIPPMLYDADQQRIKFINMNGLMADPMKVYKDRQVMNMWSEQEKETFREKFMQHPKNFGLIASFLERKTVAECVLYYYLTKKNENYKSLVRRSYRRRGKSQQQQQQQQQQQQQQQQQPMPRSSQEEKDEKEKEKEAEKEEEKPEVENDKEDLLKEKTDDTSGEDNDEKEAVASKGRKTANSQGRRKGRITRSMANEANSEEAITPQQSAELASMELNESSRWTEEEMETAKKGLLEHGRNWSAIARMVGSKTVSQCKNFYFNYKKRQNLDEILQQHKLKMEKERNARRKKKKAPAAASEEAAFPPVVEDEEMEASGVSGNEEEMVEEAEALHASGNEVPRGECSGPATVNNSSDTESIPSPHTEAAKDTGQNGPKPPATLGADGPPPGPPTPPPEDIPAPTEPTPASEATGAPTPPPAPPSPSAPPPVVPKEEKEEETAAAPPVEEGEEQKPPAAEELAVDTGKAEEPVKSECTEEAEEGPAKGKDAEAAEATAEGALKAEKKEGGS

B1: 21[5N] (other)
chain: GALVPPAALISIIQKGLQYVEAEVSINEDGTLFDGRPIESLSLIDAVMPDVVQTRQQAYRDKLAQQQAAAAAAAAAAASQQGSAKNGENTANGEENGAHTIANNHTDMMEVDGDVEIPPNKAVVLRGHESEVFICAWNPVSDLLASGSGDSTARIWNLSENSTSGSTQLVLRHCIREGGQDVPSNKDVTSLDWNSEGTLLATGSYDGFARIWTKDGNLASTLGQHKGPIFALKWNKKGNFILSAGVDKTTIIWDAHTGEAKQQFPFHSAPALDVDWQSNNTFASCSTDMCIHVCKLGQDRPIKTFQGHTNEVNAIKWDPTGNLLASCSDDMTLKIWSMKQDNCVHDLQQHNKEIYTIKWSPTGPGTNNPNANLMLASASFDSTVRLWDVDRGICIHTLTKHQEPVYSVAFSPDGRYLASGSFDKCVHIWNTQTGALVHSYRGTGGIFEVCWNAAGDKVGASASDGSVCVLDLRK
modifications: 35S-methionine label
notes: also called δ N; hC21 fragment lacking the N terminal 40 amino acid; not shown: Flag tag at the N-terminus
- binding result: no binding
